PMC10524254

Key:
surface FACS = conditions: glycan lost
[1] = CD79A-BioID2 proximity labelling, SILAC MS, TMD8; conditions: glycan lost; control: DMSO
[2] = anti-IgM Fab-pHrodo internalization, flow cytometry; conditions: glycan lost; control: DMSO
[3] = dSTORM, Hopkins index and H-function, TMD8; conditions: glycan lost; control: untreated / control cells
[4] = IgM-LAMP1 proximity ligation assay; conditions: glycan lost; control: DMSO
[5] = IgM-TLR9 proximity ligation assay; conditions: glycan lost; control: wild type IgM
[6] = dual-color iSIM, Pearson correlation, TMD8; conditions: glycan lost; control: wild type IgM

B1: CD79A: N112Q (protein)
parent chain: MPGGPGVLQALPATIFLLFLLSAVYLGPGCQALWMHKVPASLMVSLGEDAHFQCPHNSSNNANVTWWRVLHGNYTWPPEFLGPGEDPNGTLIIQNVNKSHGGIYVCRVQEGNESYQQSCGTYLRVRQPPPRPFLDMGEGTKNRIITAEGIILLFCAVVPGTLLLFRKRWQNEKLGLDAGDEYEDENLYEGLNLDDCSMYEDISRGLQGTYQDVGSLNIGDVQLEKP
With B1 the localisation_or_trafficking (surface FACS; control: wild type CD79A) was “no change”.

B2: CD79A: NGI-1 (protein)
parent chain: MPGGPGVLQALPATIFLLFLLSAVYLGPGCQALWMHKVPASLMVSLGEDAHFQCPHNSSNNANVTWWRVLHGNYTWPPEFLGPGEDPNGTLIIQNVNKSHGGIYVCRVQEGNESYQQSCGTYLRVRQPPPRPFLDMGEGTKNRIITAEGIILLFCAVVPGTLLLFRKRWQNEKLGLDAGDEYEDENLYEGLNLDDCSMYEDISRGLQGTYQDVGSLNIGDVQLEKP
With B2 the “other: proximity” value [1] was “increases”.

B3: CD79B: N73Q (protein)
parent chain: MARLALSPVPSHWMVALLLLLSAEPVPAARSEDRYRNPKGSACSRIWQSPRFIARKRGFTVKMHCYMNSASGNVSWLWKQEMDENPQQLKLEKGRMEESQNESLATLTIQGIRFEDNGIYFCQQKCNNTSEVYQGCGTELRVMGFSTLAQLKQRNTLKDGIIMIQTLLIILFIIVPIFLLLDKDDSKAGMEEDHTYEGLDIDQTATYEDIVTLRTGEVKWSVGEHPGQE
For B3, the localisation_or_trafficking (surface FACS; control: wild type CD79B) was “no change”.

B4: CD79B: triple mutant (N73Q, N101Q, N127Q) (protein)
parent chain: MARLALSPVPSHWMVALLLLLSAEPVPAARSEDRYRNPKGSACSRIWQSPRFIARKRGFTVKMHCYMNSASGNVSWLWKQEMDENPQQLKLEKGRMEESQNESLATLTIQGIRFEDNGIYFCQQKCNNTSEVYQGCGTELRVMGFSTLAQLKQRNTLKDGIIMIQTLLIILFIIVPIFLLLDKDDSKAGMEEDHTYEGLDIDQTATYEDIVTLRTGEVKWSVGEHPGQE
In the case of B4, the localisation_or_trafficking (surface FACS; control: wild type CD79B) is reported as “no change”.

B5: CD79B: N101Q (protein)
parent chain: MARLALSPVPSHWMVALLLLLSAEPVPAARSEDRYRNPKGSACSRIWQSPRFIARKRGFTVKMHCYMNSASGNVSWLWKQEMDENPQQLKLEKGRMEESQNESLATLTIQGIRFEDNGIYFCQQKCNNTSEVYQGCGTELRVMGFSTLAQLKQRNTLKDGIIMIQTLLIILFIIVPIFLLLDKDDSKAGMEEDHTYEGLDIDQTATYEDIVTLRTGEVKWSVGEHPGQE
With B5 the localisation_or_trafficking (surface FACS; control: wild type CD79B) was “no change”.

B6: IgM: quadruple mutant (N46Q, N209Q, N272Q, N279Q) (protein)
parent chain: GSASAPTLFPLVSCENSPSDTSSVAVGCLAQDFLPDSITFSWKYKNNSDISSTRGFPSVLRGGKYAATSQVLLPSKDVMQGTDEHVVCKVQHPNGNKEKNVPLPVIAELPPKVSVFVPPRDGFFGNPRKSKLICQATGFSPRQIQVSWLREGKQVGSGVTTDQVQAEAKESGPTTYKVTSTLTIKESDWLGQSMFTCRVDHRGLTFQQNASSMCVPDQDTAIRVFAIPPSFASIFLTKSTKLTCLVTDLTTYDSVTISWTRQNGEAVKTHTNISESHPNATFSAVGEASICEDDWNSGERFTCTVTHTDLPSPLKQTISRPKGVALHRPDVYLLPPAREQLNLRESATITCLVTGFSPADVFVQWMQRGQPLSPEKYVTSAPMPEPQAPGRYFAHSILTVSEEEWNTGETYTCVVAHEALPNRVTERTVDKSTEGEVSADEEGFENLWATASTFIVLFLLSLFYSTTVTLFKVK
With B6 the localisation_or_trafficking (surface FACS; control: wild type IgM) was “no change”.

B7: IgM: NGI-1 (protein)
parent chain: GSASAPTLFPLVSCENSPSDTSSVAVGCLAQDFLPDSITFSWKYKNNSDISSTRGFPSVLRGGKYAATSQVLLPSKDVMQGTDEHVVCKVQHPNGNKEKNVPLPVIAELPPKVSVFVPPRDGFFGNPRKSKLICQATGFSPRQIQVSWLREGKQVGSGVTTDQVQAEAKESGPTTYKVTSTLTIKESDWLGQSMFTCRVDHRGLTFQQNASSMCVPDQDTAIRVFAIPPSFASIFLTKSTKLTCLVTDLTTYDSVTISWTRQNGEAVKTHTNISESHPNATFSAVGEASICEDDWNSGERFTCTVTHTDLPSPLKQTISRPKGVALHRPDVYLLPPAREQLNLRESATITCLVTGFSPADVFVQWMQRGQPLSPEKYVTSAPMPEPQAPGRYFAHSILTVSEEEWNTGETYTCVVAHEALPNRVTERTVDKSTEGEVSADEEGFENLWATASTFIVLFLLSLFYSTTVTLFKVK
For B7, the localisation_or_trafficking [2] was “decreases”, the “other: surface clustering” value [3] was “decreases” and the localisation_or_trafficking [4] was “decreases”.

B8: IgM: N209Q (protein)
parent chain: GSASAPTLFPLVSCENSPSDTSSVAVGCLAQDFLPDSITFSWKYKNNSDISSTRGFPSVLRGGKYAATSQVLLPSKDVMQGTDEHVVCKVQHPNGNKEKNVPLPVIAELPPKVSVFVPPRDGFFGNPRKSKLICQATGFSPRQIQVSWLREGKQVGSGVTTDQVQAEAKESGPTTYKVTSTLTIKESDWLGQSMFTCRVDHRGLTFQQNASSMCVPDQDTAIRVFAIPPSFASIFLTKSTKLTCLVTDLTTYDSVTISWTRQNGEAVKTHTNISESHPNATFSAVGEASICEDDWNSGERFTCTVTHTDLPSPLKQTISRPKGVALHRPDVYLLPPAREQLNLRESATITCLVTGFSPADVFVQWMQRGQPLSPEKYVTSAPMPEPQAPGRYFAHSILTVSEEEWNTGETYTCVVAHEALPNRVTERTVDKSTEGEVSADEEGFENLWATASTFIVLFLLSLFYSTTVTLFKVK
For B8, the localisation_or_trafficking (surface FACS; control: wild type IgM) was “no change”.

B9: IgM: N46 mutant (protein)
parent chain: GSASAPTLFPLVSCENSPSDTSSVAVGCLAQDFLPDSITFSWKYKNNSDISSTRGFPSVLRGGKYAATSQVLLPSKDVMQGTDEHVVCKVQHPNGNKEKNVPLPVIAELPPKVSVFVPPRDGFFGNPRKSKLICQATGFSPRQIQVSWLREGKQVGSGVTTDQVQAEAKESGPTTYKVTSTLTIKESDWLGQSMFTCRVDHRGLTFQQNASSMCVPDQDTAIRVFAIPPSFASIFLTKSTKLTCLVTDLTTYDSVTISWTRQNGEAVKTHTNISESHPNATFSAVGEASICEDDWNSGERFTCTVTHTDLPSPLKQTISRPKGVALHRPDVYLLPPAREQLNLRESATITCLVTGFSPADVFVQWMQRGQPLSPEKYVTSAPMPEPQAPGRYFAHSILTVSEEEWNTGETYTCVVAHEALPNRVTERTVDKSTEGEVSADEEGFENLWATASTFIVLFLLSLFYSTTVTLFKVK
For B9, the “other: proximity (My-T-BCR formation)” value [5] was “decreases” and the “other: plasma-membrane colocalisation” value [6] was “increases”.

B10: IgM: N209 mutant (protein)
parent chain: GSASAPTLFPLVSCENSPSDTSSVAVGCLAQDFLPDSITFSWKYKNNSDISSTRGFPSVLRGGKYAATSQVLLPSKDVMQGTDEHVVCKVQHPNGNKEKNVPLPVIAELPPKVSVFVPPRDGFFGNPRKSKLICQATGFSPRQIQVSWLREGKQVGSGVTTDQVQAEAKESGPTTYKVTSTLTIKESDWLGQSMFTCRVDHRGLTFQQNASSMCVPDQDTAIRVFAIPPSFASIFLTKSTKLTCLVTDLTTYDSVTISWTRQNGEAVKTHTNISESHPNATFSAVGEASICEDDWNSGERFTCTVTHTDLPSPLKQTISRPKGVALHRPDVYLLPPAREQLNLRESATITCLVTGFSPADVFVQWMQRGQPLSPEKYVTSAPMPEPQAPGRYFAHSILTVSEEEWNTGETYTCVVAHEALPNRVTERTVDKSTEGEVSADEEGFENLWATASTFIVLFLLSLFYSTTVTLFKVK
For B10, the “other: proximity (My-T-BCR formation)” value [5] was “decreases” and the “other: plasma-membrane colocalisation” value [6] was “increases”.

B11: IgM: STT3B knockout (protein)
parent chain: GSASAPTLFPLVSCENSPSDTSSVAVGCLAQDFLPDSITFSWKYKNNSDISSTRGFPSVLRGGKYAATSQVLLPSKDVMQGTDEHVVCKVQHPNGNKEKNVPLPVIAELPPKVSVFVPPRDGFFGNPRKSKLICQATGFSPRQIQVSWLREGKQVGSGVTTDQVQAEAKESGPTTYKVTSTLTIKESDWLGQSMFTCRVDHRGLTFQQNASSMCVPDQDTAIRVFAIPPSFASIFLTKSTKLTCLVTDLTTYDSVTISWTRQNGEAVKTHTNISESHPNATFSAVGEASICEDDWNSGERFTCTVTHTDLPSPLKQTISRPKGVALHRPDVYLLPPAREQLNLRESATITCLVTGFSPADVFVQWMQRGQPLSPEKYVTSAPMPEPQAPGRYFAHSILTVSEEEWNTGETYTCVVAHEALPNRVTERTVDKSTEGEVSADEEGFENLWATASTFIVLFLLSLFYSTTVTLFKVK
In the case of B11, the “other: surface clustering” value [3] is reported as “decreases”.
